One data set has as its system duodenum lumen enzymes. Put plainly: Degradation of insulin analogs using duodenum lumen enzymes. The format is in vitro ADME. The note with it: rat duodenum lumen enzymes, 100 mM Hepes pH 7.4, 37° C.; degradation half time divided by that of reference insulin. As for the experimental part: Degradation of insulin analogs using duodenum lumen enzymes (prepared by filtration of duodenum lumen content) from SPD rats. The assay is performed by a robot in a 96 well plate (2 ml) with 16 wells available for insulin analogs and standards. Insulin analogs ˜15 μM are incubated with duodenum enzymes in 100 mM Hepes, pH=7.4 at 37° C., samples are taken after 1, 15, 30, 60, 120 and 240 min and reaction quenched by addition of TFA. Intact insulin analogs at each point are determined by RP-HPLC. […] The amount of enzymes added for the degradation is such that the half time for degradation of the reference insulin is between 60 min and 180 min.

Data set [1] concerns the target T1, human insulin receptor (Homo sapiens, UniProt P06213). Put plainly: Insulin receptor affinity, SPA antibody capture assay (0% HSA). As to conditions: relative to the affinity of human insulin. The format is binding. As for the experimental part:
(§1) SPA-PVT antibody-binding beads, anti-mouse reagent (Amersham Bio-sciences, Cat No. PRNQ0017) are mixed with 25 ml of binding buffer (100 mM HEPES pH 7.8; 100 mM sodium chloride, 10 mM MgSO4, 0.025% Tween-20). […] A total of 100 μl reagent mix is then added to each well in the Packard Optiplate and a dilution series of the N-terminally modified insulin is made in the Optiplate from appropriate samples. The samples are then incubated for 16 hours while gently shaken. The phases are the then separated by centrifugation for 1 min and the plates counted in a Topcounter.

The target in data set [2] is T1, human insulin receptor. Put plainly: Insulin receptor affinity, SPA assay with […] HSA in binding buffer. The note with it: relative to the affinity of human insulin. As for the experimental part: as §1
The nature of data set [3]: Hydrophobicity by isocratic reverse phase HPLC. The format is physicochemical. As to conditions: k'rel, isocratic RP-HPLC, pH 7.3, human insulin = 1. Here is the method:
The hydrophobicity of an N-terminally modified insulin is found by reverse phase HPLC run under isocratic conditions. […] The hydrophobicity, k′rel, is calculated as: k′relderiv=((tderiv−t0)(tref−t0)*k′relref. Using HI as reference: k′relref=k′relHI=1. The void time of the HPLC system, t0, is determined by injecting 5 μl of 0.1 mM NaNO3. Running conditions:
Column: Lichrosorb RP-C18, 5 μm, 4×250 mm
Buffer A: 0.1 M natrium phosphate pH 7.3, 10 vol % CH3CN
After running an initial gradient, the isocratic level for running the derivative and reference (for example HI) is chosen, and the elution times of the derivative and reference under isocratic conditions are used in the above equation to calculate k′relderiv.

Data set [4] is described as follows: Chemical stability of insulin derivatives in 2 mM phosphate (SEC-HPLC and RP-HPLC). Format: physicochemical. As to conditions: 4 weeks 37° C. minus 5° C. start sample; for HMWP Formation (%) (4 weeks 37° C.- 0 weeks 5° C.): pH 7.5, SEC-HPLC. Here is the method:
Chemical stability of an insulin derivative is assessed after incubating insulin derivative in 2 mM phosphate, pH=7.5 at 37° C. for up to 8 weeks. Formation of high molecular weight products (HMWP) is determined by SEC HPLC analysis after 0, 2, 4 and optionally 8 weeks. The results of the SEC method are given as a difference between HMWP formation at 37° C. and 5° C. start sample as a percentage of total absorbance at 215 nm. Chemical degradation products are determined by RP HPLC analysis after 0, 2, 4 and optionally 8 weeks. The results of the RP method are given as a difference between chemical degradation observed at 37° C. and 5° C. start sample as a percentage of total absorbance at 215 nm.
• Solvent: 500 mM NaCl, 10 mM NaH2PO4, 5 mM H3PO4, 50% (v/v) 2-propanol • Flow: 0.5 ml/min • Run time: 30 min • UV Detection: 215 nm • Column: Insulin HMWP column from Waters 7.8×300 mm • Temperature: 50° C.
• Solvent A: 0.09M phosphate buffer pH 3.6 (di-ammoniumhydrogenphosphate), 10% MeCN (v/v) • Solvent B: 80% MeCN (v/v %) • Flow: 0.3 ml/min • Runtime: 33 min • UV Detection: 215 nm • Column: Waters Acquity BEH130 C18 Column 1.7 μm, 150×2.1 mm • Temperature: 50° C. • Gradient: […]
In general terms: SEC sorts molecules by how far they enter the pores of the column.

A short description of data set [5]: Thioflavin T (ThT) fibrillation assay. The format is physicochemical. As to conditions: same experiment as prior art derivatives, 37° C., 960 rpm, pH 7.4, mean ± SD. From the text: This has traditionally been measured by visual inspection of the sample. However, that kind of measurement is very subjective and depending on the observer. Therefore the application of a small molecule indicator probe is much preferred. […] The time course for fibril formation can be described by a sigmoidal curve with the following expression (Nielsen at al. Biochemistry 40, 6036-6046, 2001):
Here, F is the ThT fluorescence at the time t. The constant t0 is the time needed to reach 50% of maximum fluorescence. The two important parameters describing fibril formation are the lag-time calculated by t0-2[…] and the apparent rate constant kapp=1/{tilde over (□)}.
Samples were prepared freshly before each assay. Each analog was dissolved in 2 mM sodium phosphate, pH=7.4. Thioflavin T was added to the samples from a stock solution in water to a final concentration of 1 μM. Sample aliquots of 200 μl were placed in a 96 well microtiter plate (Packard Optiplate™-96, white polystyrene). Usually four replica of each sample (corresponding to one test condition) were placed in one column of wells. The plate was sealed with Scotch Pad (Qiagen).
Incubation at given temperature, shaking and measurements of the ThT fluorescence emission were done in either a Fluoroskan Ascent FL or Varioskan fluorescence plate reader (thermo Labsystems). The temperature was adjusted to 37° C. […] Fluorescence measurements were done using excitation through a 444 nm filter and measurement of emission through a 485 nm filter.
Each run was initiated by incubating the plate at the assay temperature for 10 min. The plate was measured every 20 minutes for typically 45 hours. Between each measurement, the plate was shaken and heated as described above.
The measurement data points were saved in Microsoft Excel format for further processing and curve drawing and fitting was performed using Graph Pad Prism. […] The data points are typically a mean of four samples. Only data obtained in the same experiment (i.e. samples on the same plate) are presented in the same graph ensuring a relative measure of fibrillation between the individual samples of one assay rather then comparison between different assays. The data set may be fitted to Eq. (1). However since the full sigmoidal curves are not usually achieved during the measurement time, the degree of fibrillation is expressed as ThT fluorescence at various time points calculated as the mean of the four samples and shown with the standard deviation

A further data set concerns Primary rat adipocytes. The experiment in a line: Lipogenesis in rat adipocytes. The format is cell-based. As to conditions: relative potency vs human insulin. An excerpt:
As a measure of in vitro potency of the insulins of the invention, lipogenesis can be used.
The labelled glucose is converted into extractable lipids in a dose dependent way, resulting in full dose response curves.

Starred links: 1 amine or outer side, 2 acyl side, 3 side chain; linkers in the order of their positions; H or OH if unused. Positions of bridges follow the written chain, without caps; N, C: chain ends. Groups on a side chain read outwards from the residue. Chains are numbered I, II in the order given. No end group written: not given here. *: point of attachment. Phe(Nα-CONH2) = NC(=O)N[C@@H](Cc1ccccc1)C(=O)*; C20 diacid = O=C(O)CCCCCCCCCCCCCCCCCCC(=O)*; C18 diacid = O=C(O)CCCCCCCCCCCCCCCCC(=O)*; NMe2Phe = CN(C)[C@@H](Cc1ccccc1)C(=O)*; γGlu = O=C(O)[C@H](CCC(=O)[*:2])N[*:1]; Hydantoyl = NC(=O)NCC(=O)*; AEEA = NCCOCCOCC(=O)O; Me2Gly = CN(C)CC(=O)*

T1 sequence (P06213 28-746 isoform P06213-2 limits assumed): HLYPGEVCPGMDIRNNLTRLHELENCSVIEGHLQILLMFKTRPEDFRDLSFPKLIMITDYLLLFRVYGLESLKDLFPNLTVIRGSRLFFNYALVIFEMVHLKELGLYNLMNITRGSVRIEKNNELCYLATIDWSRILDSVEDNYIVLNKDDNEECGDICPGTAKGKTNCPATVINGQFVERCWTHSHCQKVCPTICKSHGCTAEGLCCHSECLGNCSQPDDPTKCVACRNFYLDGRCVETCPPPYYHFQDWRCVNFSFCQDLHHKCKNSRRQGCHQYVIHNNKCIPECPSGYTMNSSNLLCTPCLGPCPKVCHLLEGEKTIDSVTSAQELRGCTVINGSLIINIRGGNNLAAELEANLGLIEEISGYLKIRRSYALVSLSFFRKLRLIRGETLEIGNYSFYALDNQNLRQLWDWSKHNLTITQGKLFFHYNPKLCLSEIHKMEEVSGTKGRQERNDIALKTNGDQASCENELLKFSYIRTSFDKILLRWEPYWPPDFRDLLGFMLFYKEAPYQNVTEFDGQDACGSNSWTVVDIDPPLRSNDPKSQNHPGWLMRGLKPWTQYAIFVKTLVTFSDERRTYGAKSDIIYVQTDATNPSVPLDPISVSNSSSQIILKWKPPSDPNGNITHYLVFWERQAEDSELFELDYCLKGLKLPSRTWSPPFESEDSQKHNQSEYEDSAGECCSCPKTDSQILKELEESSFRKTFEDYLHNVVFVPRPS
T1 sequence (P06213 763-1382 partner limits assumed): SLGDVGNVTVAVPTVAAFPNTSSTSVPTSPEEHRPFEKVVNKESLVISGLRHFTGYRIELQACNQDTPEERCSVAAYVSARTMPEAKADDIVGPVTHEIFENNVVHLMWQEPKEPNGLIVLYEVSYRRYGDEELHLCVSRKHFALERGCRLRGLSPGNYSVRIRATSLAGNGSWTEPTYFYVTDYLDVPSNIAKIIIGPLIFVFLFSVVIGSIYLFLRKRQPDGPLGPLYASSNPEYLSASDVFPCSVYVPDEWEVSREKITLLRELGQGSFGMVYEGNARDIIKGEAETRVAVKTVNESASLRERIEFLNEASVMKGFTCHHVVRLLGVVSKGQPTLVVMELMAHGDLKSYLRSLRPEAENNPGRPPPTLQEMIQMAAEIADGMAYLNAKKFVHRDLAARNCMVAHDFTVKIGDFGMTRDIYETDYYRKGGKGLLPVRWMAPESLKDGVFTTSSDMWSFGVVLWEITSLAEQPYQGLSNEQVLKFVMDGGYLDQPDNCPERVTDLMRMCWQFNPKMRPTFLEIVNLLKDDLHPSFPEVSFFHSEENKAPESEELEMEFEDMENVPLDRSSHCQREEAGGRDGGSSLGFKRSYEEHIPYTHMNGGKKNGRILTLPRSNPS

Consider “I: NMe2Phe-VCQHLCGSHLVEALHLVCGERGFHYTPK([AEEA-AEEA-γGlu-C20 diacid]) / II: Me2Gly-IVEQCCTSCCSLEQLENYCN (disulfide I:2-II:9, I:6-II:6, I:18-II:19, II:5-II:10) [Example 28, A1(N^α,N^α-Dimethyl), A10C, A14E, B1(N^α,N^α-dimethyl), B3C, B16H, B25H, B29K(N^εeicosanedioyl-gGlu-2×OEG), desB30 Human Insulin]”, for which the “Stability towards duodenum lumen enzymes (fold relative to A14E, B25H, desB30 human insulin)” value in the data set with duodenum lumen enzymes came out at 1.6 fold. Moreover, the “Relative IR-A affinity (@ 0% HSA) (%)” value at human insulin receptor [1] is 0.1%. The “Relative IR-A affinity (@ […] HSA) (%)e” value at human insulin receptor [2] amounted to 0.01%. In addition, the “Hydrophobicity rel. to human insulin” value in data set [3] was determined as 0.298.
For the substance “I: NMe2Phe-VCQHLCGSHLVEALYLVCGERGFHYPK([AEEA-AEEA-γGlu-C18 diacid]) / II: Me2Gly-IVEQCCTSCCSLEQLENYCN (disulfide I:2-II:9, I:6-II:6, I:18-II:19, II:5-II:10) [Example 11, A1(N^α,N^α-Dimethyl), A10C, A14E, B1(N^α,N^α-dimethyl), B3C, B25H, desB27, B29K(N^εoctadecanedioyl-gGlu-2×OEG), desB30 Human Insulin]”, at human insulin receptor [1], the “Relative IR-A affinity (@ 0% HSA) (%)” value was found to be 0.6%. Moreover, the “Relative IR-A affinity (@ […] HSA) (%)e” value on human insulin receptor [2] stood at 0.04%. For the same substance, the “Chemical degradation (%) (4 weeks 37° C.- 0 weeks 5° C.)” value in data set [4] (pH 7.5, RP-HPLC) is 3.2%. Besides, the “HMWP Formation (%) (4 weeks 37° C.- 0 weeks 5° C.)” value in data set [4] is given as −0.2%. Further, the “Hydrophobicity rel. to human insulin” value in data set [3] came out at 0.095. In addition, in data set [5], the “ThT 0 h” value worked out at 31 ± 0.4, the “ThT 5 h” value is on record as 23 ± 0.4, the “ThT 10 h” value is 23 ± 0.6 and the “ThT 30 h” value is reported as 21 ± 0.2. The “ThT 40 h” value in data set [5] was 21 ± 0.3.
In the case of “I: NMe2Phe-VCQHLCGSHLVEALYLVCGERGFHYTPK([AEEA-AEEA-γGlu-C20 diacid]) / II: Me2Gly-IVEQCCTSCCSLEQLENYCN (disulfide I:2-II:9, I:6-II:6, I:18-II:19, II:5-II:10) [Example 2, A1(N^α,N^α-Dimethyl), A10C, A14E, B1(N^α,N^α-dimethyl), B3C, B25H, B29K(N^εeicosanedioyl-gGlu-2×OEG), desB30 Human Insulin]”, the “HMWP Formation (%) (4 weeks 37° C.- 0 weeks 5° C.)” value in data set [4] is given as 0.0%. In addition, the “Lipogenesis in rat adipocytres (@ 0.1% HSA) rel. to human insulin (%)” value in the data set with Primary rat adipocytes is given as 0.025%. Moreover, the “Hydrophobicity rel. to human insulin” value in data set [3] stood at 0.38. For the same substance, in data set [5], the “ThT 0 h” value was 35 ± 0.9, the “ThT 5 h” value amounted to 22 ± 0.4, the “ThT 10 h” value came out at 22 ± 0.3 and the “ThT 30 h” value worked out at 20 ± 0.3. The “ThT 40 h” value in data set [5] stood at 19 ± 0.3.
“I: {Phe(Nα-CONH2)}-VCQHLCGSHLVEALYLVCGERGFFYPK([AEEA-AEEA-γGlu-C18 diacid]) / II: Hydantoyl-IVEQCCTSCCSLEQLENYCN (disulfide I:2-II:9, I:6-II:6, I:18-II:19, II:5-II:10) [Example 33, A1(N^α-Carbamoyl), A10C, A14E, B1(N^α-carbamoyl), B3C, desB27, B29K(N^εoctadecanedioyl-gGlu-2×OEG), desB30 Human Insulin]”: the “Stability towards duodenum lumen enzymes (fold relative to A14E, B25H, desB30 human insulin)” value with duodenum lumen enzymes came out at 1.6 fold. Moreover, the “Relative IR-A affinity (@ 0% HSA) (%)” value on human insulin receptor [1] was determined as 0.6%.
On to “I: {Phe(Nα-CONH2)}-VCQHLCGSHLVEALYLVCGERGFHYPK([AEEA-AEEA-γGlu-C20 diacid]) / II: Hydantoyl-IVEQCCTSCCSLEQLENYCN (disulfide I:2-II:9, I:6-II:6, I:18-II:19, II:5-II:10) [Example 46, A1(N^α-Carbamoyl), A10C, A14E, B1(N^α-carbamoyl), B3C, B25H, desB27, B29K(N^εeicosanedioyl-gGlu-2×OEG), desB30 Human Insulin]”, for which, in the data set with duodenum lumen enzymes, the “Stability towards duodenum lumen enzymes (fold relative to A14E, B25H, desB30 human insulin)” value was found to be 1.2 fold. On human insulin receptor [1], the “Relative IR-A affinity (@ 0% HSA) (%)” value came out at 0.1%. Besides, the “Relative IR-A affinity (@ […] HSA) (%)e” value on human insulin receptor [2] is 0.01%. The “Hydrophobicity rel. to human insulin” value in data set [3] is 0.132.
As to “I: {Phe(Nα-CONH2)}-VCQHLCGSHLVEALYLVCGERGFHYPK([γGlu-C18 diacid]) / II: Hydantoyl-IVEQCCTSCCSLEQLENYCN (disulfide I:2-II:9, I:6-II:6, I:18-II:19, II:5-II:10) [Example 34, A1(N^αCarbamoyl), A10C, A14E, B1(N^αcarbamoyl), B3C, B25H, desB27, B29K(N^εoctadecanedioyl-gGlu), desB30 Human Insulin]”, the “Stability towards duodenum lumen enzymes (fold relative to A14E, B25H, desB30 human insulin)” value in the data set with duodenum lumen enzymes stood at 1.8 fold. The “Relative IR-A affinity (@ 0% HSA) (%)” value on human insulin receptor [1] was determined as 0.1%. Further, on human insulin receptor [2], the “Relative IR-A affinity (@ […] HSA) (%)e” value stood at 0.00%. In data set [5], the “ThT 0 h” value is on record as 20 ± 0.1, the “ThT 5 h” value came to 13 ± 0.7, the “ThT 10 h” value amounted to 13 ± 0.8 and the “ThT 30 h” value is recorded as 13 ± 0.4. Also, the “ThT 40 h” value in data set [5] was determined as 13 ± 0.3.
